The assay concerns the target bovine lung-derived ANP receptor (bovine). Put plainly: competition radioligand binding: displacement of 125I-rat ANP from bovine lung membrane fraction, filter assay.

Square brackets hold non-standard residues; d marks the D form.

Sequence of bovine lung-derived ANP receptor (bovine) (P10730 42-537): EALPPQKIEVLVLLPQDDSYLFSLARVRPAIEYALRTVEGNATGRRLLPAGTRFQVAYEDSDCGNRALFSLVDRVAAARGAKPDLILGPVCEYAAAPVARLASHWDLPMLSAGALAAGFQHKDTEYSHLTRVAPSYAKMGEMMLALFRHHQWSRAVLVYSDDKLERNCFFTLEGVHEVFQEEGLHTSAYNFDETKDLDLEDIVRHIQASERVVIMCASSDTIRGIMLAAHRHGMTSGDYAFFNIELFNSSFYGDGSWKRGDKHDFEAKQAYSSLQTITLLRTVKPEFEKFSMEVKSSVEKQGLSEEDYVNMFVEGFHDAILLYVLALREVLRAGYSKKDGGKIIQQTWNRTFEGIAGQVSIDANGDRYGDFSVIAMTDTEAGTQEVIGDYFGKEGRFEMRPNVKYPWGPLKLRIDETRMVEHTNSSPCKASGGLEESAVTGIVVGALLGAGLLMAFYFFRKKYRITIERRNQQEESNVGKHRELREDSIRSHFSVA

B1: compound (j) (H-Phe-Gly-Gly-D-Arg-Ile-Asp-D-Arg-Ile-NH2) (peptide)
peptide: H-FGG[dR]ID[dR]I-NH2
SMILES: CC[C@H](C)[C@H](NC(=O)[C@@H](CCCNC(=N)N)NC(=O)[C@H](CC(=O)O)NC(=O)[C@@H](NC(=O)[C@@H](CCCNC(=N)N)NC(=O)CNC(=O)CNC(=O)[C@@H](N)Cc1ccccc1)[C@@H](C)CC)C(N)=O
Molecule B1 registered an IC50 of 5400 nM.

B2: compound (i) (H-Phe-Gly-Gly-D-Arg-Ile-Asp-Arg-Ile-NH2) (peptide)
peptide: H-FGG[dR]IDRI-NH2
SMILES: CC[C@H](C)[C@H](NC(=O)[C@H](CCCNC(=N)N)NC(=O)[C@H](CC(=O)O)NC(=O)[C@@H](NC(=O)[C@@H](CCCNC(=N)N)NC(=O)CNC(=O)CNC(=O)[C@@H](N)Cc1ccccc1)[C@@H](C)CC)C(N)=O
Molecule B2 showed an IC50 of 210 nM.

For the origin of these results see patent publication EP0672680A1.
